From paper PMC8597827, “The effect of S427F mutation on RXRα activity depends on its dimeric partner†” come the findings set out here.

The target in the series is RXRα S427F (human, UniProt P19793 1-462, S427F). Briefly: EMSA; no ligand; binds as well as WT; two shifts; competed by 5x and 25x unlabeled DR1; 10 mM Tris HCl pH 8.0, 150 mM KCl, 0.5 mM EDTA, 0.1% Triton X-100, 12.5% glycerol, 0.2 mM DTT, 1 ug poly(dI-dC), 100 pmol probe in 20 uL; 10 min RT then 5 min 37 C; 5% PAGE in 0.5x TBE at 4 C. To be noted: protein: recombinant; chain copies: 2; blunt. Background: In EMSA bound probe runs differently from free probe, usually more slowly.
RXRα S427F, sequence (P19793 whole entry S427F): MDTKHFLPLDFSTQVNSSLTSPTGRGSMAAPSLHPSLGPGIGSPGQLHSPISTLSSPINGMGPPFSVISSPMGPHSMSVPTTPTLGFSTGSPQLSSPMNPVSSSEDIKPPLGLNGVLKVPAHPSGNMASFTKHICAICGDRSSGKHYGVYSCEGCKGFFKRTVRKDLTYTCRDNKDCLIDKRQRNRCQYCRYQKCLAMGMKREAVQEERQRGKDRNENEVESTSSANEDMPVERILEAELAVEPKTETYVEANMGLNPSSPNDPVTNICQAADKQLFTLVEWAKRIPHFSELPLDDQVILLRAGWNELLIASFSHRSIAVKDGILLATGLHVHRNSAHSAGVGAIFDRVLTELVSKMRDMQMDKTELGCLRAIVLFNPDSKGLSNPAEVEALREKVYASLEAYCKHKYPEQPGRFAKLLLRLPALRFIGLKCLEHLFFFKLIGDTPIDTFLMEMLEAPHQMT

B1: DR1 (dsDNA)
DNA 1: TCGAGGGTAGGGGTCAGAGGTCACTCGTCGA
DNA 2: TCGACGAGTGACCTCTGACCCCTACCCTCGA
B1: the binding result was “binds”.
